Several values for one entry are separate records, joined by “and”; a condition that tells them apart may be missing. Equal values may be shown once.
Target: T1, human TACI (transmembrane activator and CAML interactor, TNFRSF13B) on Tregs, iTregs and Bregs (human) (UniProt O14836)
T1 sequence: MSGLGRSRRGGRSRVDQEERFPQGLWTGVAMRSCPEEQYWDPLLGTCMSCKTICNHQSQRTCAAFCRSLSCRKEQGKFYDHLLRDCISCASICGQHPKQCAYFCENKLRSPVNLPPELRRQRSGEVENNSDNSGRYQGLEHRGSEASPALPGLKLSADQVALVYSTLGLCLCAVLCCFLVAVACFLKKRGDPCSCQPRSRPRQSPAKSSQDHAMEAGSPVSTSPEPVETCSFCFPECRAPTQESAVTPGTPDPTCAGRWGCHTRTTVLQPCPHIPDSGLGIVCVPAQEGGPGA
Assay: cell-based or functional assay

recombinant human APRIL (a proliferation-inducing ligand) (from UniProt O75888 105-250)
fold increase of MM cell-induced iTreg in CD4 T cells, against control media: > 1.5 fold and 1.5 to 4 fold
percent Breg (CD19+CD24highCD38high) in B cells of MM patient BMMCs: 25.2%
percent IL-10 production in Bregs of MM patient BMMCs: 29.2%
percent proliferative iTreg (CTV-Foxp3+) in cocultures with U266 MM cells, representative experiment: 13.4%
percent proliferative iTreg (CTV-Foxp3+) in cocultures with U266 MM cells, three experiments: 11.3%
percent proliferative iTreg (CTV-Foxp3+CD4+) in cocultures with U266 MM cells, additional representative experiment: 8.02%
